Tests used:
Fyn = Fyn (UniProt P06241); experiment: phosphorylation enrichment, bacterial display (enrichment ratio); higher = better substrate or ligand; peptides without Tyr show the background
EPHB2 = EPHB2 (UniProt P29323); experiment: as above
Fes = Fes (UniProt P07332); experiment: as above
Fer (mouse) = experiment: as above
FGFR3 = FGFR3 (UniProt P22607); experiment: as above
AncSZ = experiment: as above
FGFR1 = FGFR1 (UniProt P11362); experiment: as above
Hck = Hck (UniProt P08631); experiment: as above
c-Src = experiment: as above
EPHB1 = EPHB1 (UniProt P54762); experiment: as above
Jak2 = Jak2 (UniProt O60674); experiment: as above
c-Abl (mouse) = experiment: as above
MERTK = MERTK (UniProt Q12866); experiment: as above
Grb2 SH2 = Grb2 SH2 (UniProt P62993); experiment: SH2 binding enrichment of the phosphorylated peptide, bacterial display (enrichment ratio); higher = better substrate or ligand; peptides without Tyr show the background
c-Src SH2 = experiment: as above
SHP2-C SH2 = experiment: as above
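Throughout, for SH2 binding enrichment of the phosphorylated peptide, bacterial display: peptide library displayed on the E. coli surface as eCPX fusions, selected cells deep-sequenced, score is each peptide's frequency after selection divided by its frequency in the input.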
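Throughout, for phosphorylation enrichment, bacterial display: 11-residue human phosphosite peptides and single-mutation variants displayed on the E. coli surface, counted by deep sequencing, each peptide's frequency after selection divided by its frequency in the unselected input library; frequency after pTyr selection over input frequency; kinase dosed for 20-30% of maximal phosphorylation in three min.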

Sequence of Fyn (P06241 whole entry, looked up): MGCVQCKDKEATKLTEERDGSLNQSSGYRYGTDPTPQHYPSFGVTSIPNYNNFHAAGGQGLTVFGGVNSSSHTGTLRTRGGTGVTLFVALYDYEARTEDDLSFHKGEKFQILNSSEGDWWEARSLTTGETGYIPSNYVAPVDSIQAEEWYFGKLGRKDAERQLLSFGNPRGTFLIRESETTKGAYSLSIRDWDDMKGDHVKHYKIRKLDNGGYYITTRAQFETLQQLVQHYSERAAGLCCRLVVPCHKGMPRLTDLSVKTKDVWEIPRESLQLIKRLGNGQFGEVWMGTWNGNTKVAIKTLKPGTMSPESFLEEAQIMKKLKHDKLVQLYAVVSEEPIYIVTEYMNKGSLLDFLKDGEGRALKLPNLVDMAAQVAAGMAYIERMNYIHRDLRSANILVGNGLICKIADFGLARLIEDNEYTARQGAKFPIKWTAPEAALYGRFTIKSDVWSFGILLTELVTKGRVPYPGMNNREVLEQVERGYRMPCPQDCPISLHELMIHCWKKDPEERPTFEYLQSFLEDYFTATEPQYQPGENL
Sequence of MERTK (Q12866 whole entry, looked up): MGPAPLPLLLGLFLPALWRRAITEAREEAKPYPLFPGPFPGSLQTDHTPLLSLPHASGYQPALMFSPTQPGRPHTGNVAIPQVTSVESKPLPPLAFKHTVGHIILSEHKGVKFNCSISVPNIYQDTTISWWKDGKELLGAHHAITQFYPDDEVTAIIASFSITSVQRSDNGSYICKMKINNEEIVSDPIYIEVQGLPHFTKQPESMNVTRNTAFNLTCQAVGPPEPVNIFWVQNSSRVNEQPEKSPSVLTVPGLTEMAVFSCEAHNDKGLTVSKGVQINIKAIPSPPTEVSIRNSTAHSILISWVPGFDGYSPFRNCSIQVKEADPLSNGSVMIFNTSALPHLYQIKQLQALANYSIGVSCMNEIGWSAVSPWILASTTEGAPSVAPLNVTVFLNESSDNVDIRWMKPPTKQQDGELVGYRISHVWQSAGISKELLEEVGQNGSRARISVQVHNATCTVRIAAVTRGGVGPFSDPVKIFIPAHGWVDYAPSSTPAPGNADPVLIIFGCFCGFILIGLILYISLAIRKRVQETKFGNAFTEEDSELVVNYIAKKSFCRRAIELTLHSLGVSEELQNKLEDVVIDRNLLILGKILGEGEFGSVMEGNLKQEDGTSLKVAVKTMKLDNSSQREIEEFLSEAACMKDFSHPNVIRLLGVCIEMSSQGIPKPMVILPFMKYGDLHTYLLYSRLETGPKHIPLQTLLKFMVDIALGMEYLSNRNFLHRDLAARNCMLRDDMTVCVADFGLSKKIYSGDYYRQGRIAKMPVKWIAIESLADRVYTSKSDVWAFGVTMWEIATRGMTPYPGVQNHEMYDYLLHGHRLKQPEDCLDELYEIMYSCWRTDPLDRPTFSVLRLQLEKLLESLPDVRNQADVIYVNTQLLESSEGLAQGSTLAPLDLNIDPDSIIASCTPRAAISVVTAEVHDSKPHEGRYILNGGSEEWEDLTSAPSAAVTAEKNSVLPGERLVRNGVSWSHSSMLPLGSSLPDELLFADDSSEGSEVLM
Sequence of Hck (P08631 whole entry, looked up): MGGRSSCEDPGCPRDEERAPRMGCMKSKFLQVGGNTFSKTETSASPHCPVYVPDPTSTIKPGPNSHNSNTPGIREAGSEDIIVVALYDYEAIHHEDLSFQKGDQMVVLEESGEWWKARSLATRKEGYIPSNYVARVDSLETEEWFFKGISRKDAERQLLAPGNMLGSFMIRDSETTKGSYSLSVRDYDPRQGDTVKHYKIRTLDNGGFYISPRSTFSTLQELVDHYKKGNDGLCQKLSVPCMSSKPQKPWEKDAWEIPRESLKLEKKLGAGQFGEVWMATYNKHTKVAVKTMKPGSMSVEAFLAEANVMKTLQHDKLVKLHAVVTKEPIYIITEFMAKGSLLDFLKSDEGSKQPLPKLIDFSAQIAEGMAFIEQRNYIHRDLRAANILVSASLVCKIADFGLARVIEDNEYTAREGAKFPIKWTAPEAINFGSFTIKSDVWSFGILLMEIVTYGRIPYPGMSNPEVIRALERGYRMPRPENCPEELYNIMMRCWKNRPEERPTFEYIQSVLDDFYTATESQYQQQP
Sequence of FGFR3 (P22607 whole entry, looked up): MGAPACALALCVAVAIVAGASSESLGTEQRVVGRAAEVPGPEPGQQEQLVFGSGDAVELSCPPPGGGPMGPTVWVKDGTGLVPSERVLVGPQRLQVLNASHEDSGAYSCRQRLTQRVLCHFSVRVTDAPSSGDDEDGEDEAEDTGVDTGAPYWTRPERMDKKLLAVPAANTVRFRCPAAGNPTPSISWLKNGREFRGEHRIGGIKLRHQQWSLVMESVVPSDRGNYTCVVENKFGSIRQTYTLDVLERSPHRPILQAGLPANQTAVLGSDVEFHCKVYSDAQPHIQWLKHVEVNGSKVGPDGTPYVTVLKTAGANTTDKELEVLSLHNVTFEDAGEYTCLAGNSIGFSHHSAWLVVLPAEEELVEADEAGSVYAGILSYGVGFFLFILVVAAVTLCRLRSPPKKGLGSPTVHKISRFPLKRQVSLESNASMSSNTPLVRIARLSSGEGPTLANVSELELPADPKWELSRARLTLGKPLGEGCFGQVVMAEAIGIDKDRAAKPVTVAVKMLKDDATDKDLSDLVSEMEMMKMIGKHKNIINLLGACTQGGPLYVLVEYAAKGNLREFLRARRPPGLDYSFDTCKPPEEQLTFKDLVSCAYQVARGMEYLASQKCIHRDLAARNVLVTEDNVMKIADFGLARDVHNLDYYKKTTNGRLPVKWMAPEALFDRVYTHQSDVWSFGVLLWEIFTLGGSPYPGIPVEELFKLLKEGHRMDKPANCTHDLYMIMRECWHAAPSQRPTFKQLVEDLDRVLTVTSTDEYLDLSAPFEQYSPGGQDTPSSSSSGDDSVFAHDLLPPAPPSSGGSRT
Sequence of FGFR1 (P11362 whole entry, looked up): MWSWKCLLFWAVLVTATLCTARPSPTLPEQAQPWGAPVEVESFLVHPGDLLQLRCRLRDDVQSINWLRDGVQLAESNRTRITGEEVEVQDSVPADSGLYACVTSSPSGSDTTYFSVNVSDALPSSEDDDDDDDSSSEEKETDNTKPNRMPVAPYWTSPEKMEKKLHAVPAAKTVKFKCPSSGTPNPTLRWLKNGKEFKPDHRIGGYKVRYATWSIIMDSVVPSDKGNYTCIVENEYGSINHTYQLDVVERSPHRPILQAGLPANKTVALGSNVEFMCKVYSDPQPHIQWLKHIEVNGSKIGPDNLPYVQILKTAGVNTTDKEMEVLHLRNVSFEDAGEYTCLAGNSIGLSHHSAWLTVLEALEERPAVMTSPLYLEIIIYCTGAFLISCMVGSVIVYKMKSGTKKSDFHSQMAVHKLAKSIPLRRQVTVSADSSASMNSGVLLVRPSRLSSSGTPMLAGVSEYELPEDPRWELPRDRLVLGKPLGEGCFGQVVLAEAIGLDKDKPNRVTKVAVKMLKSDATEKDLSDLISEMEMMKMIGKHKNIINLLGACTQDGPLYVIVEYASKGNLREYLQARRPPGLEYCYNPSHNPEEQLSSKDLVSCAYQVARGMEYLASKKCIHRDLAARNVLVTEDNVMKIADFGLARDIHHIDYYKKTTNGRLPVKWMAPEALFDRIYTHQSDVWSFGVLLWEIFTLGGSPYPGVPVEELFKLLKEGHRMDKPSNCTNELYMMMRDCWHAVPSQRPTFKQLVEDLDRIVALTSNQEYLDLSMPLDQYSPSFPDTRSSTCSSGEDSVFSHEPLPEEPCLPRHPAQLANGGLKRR
Sequence of Fes (P07332 whole entry, looked up): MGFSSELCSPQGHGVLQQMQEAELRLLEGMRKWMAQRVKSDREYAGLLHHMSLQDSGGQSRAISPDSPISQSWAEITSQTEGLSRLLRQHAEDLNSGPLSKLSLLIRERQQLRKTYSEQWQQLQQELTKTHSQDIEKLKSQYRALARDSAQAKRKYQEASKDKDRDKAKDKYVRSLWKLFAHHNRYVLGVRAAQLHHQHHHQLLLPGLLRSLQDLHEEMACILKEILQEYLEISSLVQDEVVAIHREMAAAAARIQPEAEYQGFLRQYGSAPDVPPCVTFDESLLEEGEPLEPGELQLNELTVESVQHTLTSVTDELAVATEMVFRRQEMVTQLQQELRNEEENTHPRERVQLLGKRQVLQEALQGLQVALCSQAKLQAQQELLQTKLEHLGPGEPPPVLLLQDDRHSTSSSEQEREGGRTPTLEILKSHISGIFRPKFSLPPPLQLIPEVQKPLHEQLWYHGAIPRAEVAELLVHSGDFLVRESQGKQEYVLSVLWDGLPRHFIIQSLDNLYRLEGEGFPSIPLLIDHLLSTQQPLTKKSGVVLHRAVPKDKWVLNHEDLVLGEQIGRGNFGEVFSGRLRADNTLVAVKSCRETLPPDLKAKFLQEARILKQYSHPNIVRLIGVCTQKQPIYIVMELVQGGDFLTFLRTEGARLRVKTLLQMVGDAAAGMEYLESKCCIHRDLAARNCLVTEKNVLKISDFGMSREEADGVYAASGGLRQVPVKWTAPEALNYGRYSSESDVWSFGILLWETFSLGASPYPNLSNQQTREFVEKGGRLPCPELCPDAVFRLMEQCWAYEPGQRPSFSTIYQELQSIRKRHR
Sequence of Grb2 SH2 (P62993 whole entry, looked up): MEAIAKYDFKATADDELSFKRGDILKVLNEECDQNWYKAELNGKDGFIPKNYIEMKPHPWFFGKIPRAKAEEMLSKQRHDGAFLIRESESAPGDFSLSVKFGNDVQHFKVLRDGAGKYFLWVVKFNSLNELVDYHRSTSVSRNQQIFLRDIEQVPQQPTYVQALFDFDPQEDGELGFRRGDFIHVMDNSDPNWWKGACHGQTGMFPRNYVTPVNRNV

| Sequence | phosphorylation enrichment (Fyn) | phosphorylation enrichment (EPHB2) | phosphorylation enrichment (Fes) | phosphorylation enrichment (Fer (mouse)) | phosphorylation enrichment (FGFR3) | phosphorylation enrichment (AncSZ) | phosphorylation enrichment (FGFR1) | phosphorylation enrichment (Hck) | phosphorylation enrichment (c-Src) | phosphorylation enrichment (EPHB1) | phosphorylation enrichment (Jak2) | phosphorylation enrichment (c-Abl (mouse)) | phosphorylation enrichment (MERTK) | SH2 binding enrichment (Grb2 SH2) | SH2 binding enrichment (c-Src SH2) | SH2 binding enrichment (SHP2-C SH2) |
| --- | --- | --- | --- | --- | --- | --- | --- | --- | --- | --- | --- | --- | --- | --- | --- | --- |
| FHKALYTVRTF [PDE6C_Y266_S270T_YF] | 0.581 | 0.529 | 1.02 | 0.427 | 0.691 | 0.914 | 0.582 | 0.67 | 0.729 | 0.567 | 0.907 | 0.838 | 0.523 | 0.853 | 0.536 | 0.722 |
| YGSGNYNVFGN [HNRNPA2B1_Y300_D302V] | 0.76 | 0.797 | 0.828 | 0.561 | 0.63 | 0.737 | 0.539 | 0.882 | 0.653 | 0.666 | 0.683 | 0.49 | 0.639 | 0.813 | 0.682 | 0.673 |
| GRLVEYDIDEV [SMS_Y134] | 0.508 | 1.05 | 1.48 | 0.658 | 0.771 | 1.28 | 0.494 | 0.549 | 0.563 | 0.709 | 1.45 | 0.902 | 0.489 | 0.812 | 0.845 | 0.613 |
| KKCTRYIDCDR [ASPA_Y64_L69R] | 0.323 | 0.445 | 1 | 0.406 | 0.542 | 0.832 | 0.417 | 0.37 | 0.427 | 0.402 | 0.691 | 0.72 | 0.461 | 0.974 | 0.839 | 0.633 |
| IGEVVYQRAAM [GRIN2A_Y502_V506A] | 0.9 | 0.425 | 0.824 | 0.78 | 0.394 | 0.841 | 0.438 | 1.66 | 1.27 | 0.442 | 0.595 | 5.89 | 0.441 | 0.84 | 0.53 | 0.883 |
| CSEEMYRLMLQ [RET_Y981] | 0.606 | 0.664 | 1.41 | 0.619 | 0.853 | 1.4 | 0.921 | 0.666 | 0.643 | 0.695 | 1.5 | 0.947 | 0.573 | 0.7 | 0.414 | 0.549 |
| NKKYHYRELPV [ERN2_Y860_H858Y] | 0.296 | 0.278 | 0.502 | 0.32 | 0.345 | 0.456 | 0.316 | 0.29 | 0.32 | 0.361 | 0.379 | 0.515 | 0.28 | 1.17 | 1.06 | 1.12 |
| GRRNTYFASIA [ACADM_Y352_YF] | 0.551 | 0.423 | 0.556 | 0.481 | 0.507 | 0.722 | 0.439 | 0.423 | 0.615 | 0.346 | 0.5 | 0.588 | 0.466 | 0.696 | 0.356 | 0.528 |
| EREFKYGAHKF [OAT_Y50_N54K_YF] | 0.443 | 0.412 | 0.738 | 0.329 | 0.438 | 0.599 | 0.424 | 0.427 | 0.423 | 0.339 | 0.571 | 0.496 | 0.392 | 0.846 | 0.464 | 0.585 |
| HFVDEYDPTIE [KRAS_Y32] | 0.605 | 0.99 | 1.79 | 0.886 | 0.888 | 1.74 | 0.884 | 0.828 | 0.779 | 0.784 | 1.54 | 1.33 | 0.724 | 0.786 | 0.575 | 0.666 |
| IIQRAYRGHLL [SCN1A_Y1926_R1928G] | 0.429 | 0.327 | 0.671 | 0.387 | 0.628 | 0.483 | 0.447 | 0.428 | 0.432 | 0.38 | 0.555 | 0.437 | 0.47 | 0.758 | 0.5 | 0.559 |
| RSYSPCDYQPC [TNS1_Y796_Y796C] | 0.554 | 8.45 | 0.935 | 0.544 | 1.28 | 1.12 | 2.76 | 0.777 | 1.56 | 17.1 | 0.533 | 0.457 | 0.726 | 0.759 | 1.17 | 0.421 |
| PFRFIYMAVQH [PTPN11_Y515_Q510P_YF] | 0.732 | 0.737 | 1.01 | 0.563 | 0.726 | 1.09 | 0.463 | 1.11 | 1.26 | 0.741 | 1.18 | 1.27 | 0.527 | 1.02 | 0.872 | 1.02 |
| MCDKEYYSVHN [MET_Y1234_Y1230C] | 0.684 | 0.865 | 0.862 | 0.594 | 3.33 | 1.79 | 5.1 | 0.734 | 1.02 | 0.625 | 1.31 | 0.566 | 0.478 | 1.13 | 1.16 | 0.908 |
| FKNGDYSEVMK [LCT_Y1638_N1639S] | 0.42 | 0.877 | 0.709 | 0.362 | 0.468 | 0.697 | 0.57 | 0.413 | 0.574 | 0.859 | 0.686 | 0.429 | 0.433 | 1.11 | 1.84 | 0.739 |
| QMVGMYASFFM [AVPR2_Y124_S127F_YF] | 9.8 | 2.27 | 2.03 | 5.31 | 1.5 | 1.88 | 0.676 | 5.82 | 8.13 | 3.06 | 2.03 | 4.72 | 5.38 | 0.642 | 0.602 | 0.782 |
| IGSHAYGDQYR [IDH1_Y135_R132S] | 0.464 | 0.419 | 0.619 | 0.374 | 0.517 | 0.583 | 0.45 | 0.342 | 0.43 | 0.497 | 0.554 | 0.576 | 0.406 | 0.848 | 0.433 | 0.521 |
| GSSSSCGQHGS [HRNR_Y517_Y517C] | 0.4 | 0.311 | 0.622 | 0.38 | 0.522 | 0.556 | 0.363 | 0.333 | 0.283 | 0.342 | 0.448 | 0.411 | 0.294 | 0.982 | 0.553 | 0.875 |
| HYEDGYPGGSD [CTNND1_Y221] | 0.799 | 0.762 | 1.28 | 0.908 | 0.945 | 1.75 | 0.819 | 0.629 | 1.13 | 0.796 | 1.44 | 1.12 | 0.852 | 0.915 | 0.924 | 0.786 |
| VIKDKYPKAHF [APTX_Y209_R213H_YF] | 0.389 | 0.3 | 0.493 | 0.355 | 0.387 | 0.523 | 0.38 | 0.284 | 0.369 | 0.285 | 0.534 | 0.514 | 0.356 | 0.999 | 0.766 | 1.01 |
| LVMFIYVIFGM [SCN1A_Y1684_A1685V] | 0.517 | 0.615 | 0.673 | 0.366 | 0.604 | 0.694 | 0.583 | 0.571 | 0.275 | 0.496 | 0.477 | 0.468 | 0.365 | 2.05 | 1.1 | 1.49 |
| SGPRCYTIAAL [TTR_Y125_R124C] | 0.405 | 0.403 | 0.669 | 0.554 | 0.462 | 0.617 | 0.392 | 0.354 | 0.399 | 0.41 | 0.535 | 0.46 | 0.344 | 0.808 | 0.586 | 0.766 |
| YLELNYKEDEY [MME_Y502] | 0.63 | 0.478 | 1.43 | 0.55 | 3.65 | 1.78 | 4.36 | 1.21 | 0.88 | 0.786 | 1.3 | 0.929 | 0.923 | 0.802 | 4.38 | 0.71 |
| LLQEWYMIISR [HUWE1_Y4066_R4063Q] | 0.766 | 0.921 | 2.39 | 0.821 | 2.45 | 2.05 | 1.04 | 1.1 | 1.25 | 2.11 | 3.08 | 1.81 | 1.1 | 1.08 | 0.623 | 1.09 |
| KSSDVYVSFDF [SORL1_Y136_YF] | 5.77 | 1.11 | 1.22 | 4.79 | 2.81 | 1.21 | 3.78 | 3.02 | 4.3 | 1.73 | 0.983 | 0.935 | 3.34 | 0.891 | 0.497 | 0.715 |
| YTGDIYSNSNL [LZTR1_Y141] | 7.46 | 1.53 | 0.707 | 3.56 | 0.616 | 0.954 | 0.626 | 7.87 | 4.63 | 1.19 | 0.524 | 0.911 | 2.36 | 0.648 | 0.479 | 0.545 |
| GGSDCYGSLRP [MYLK_Y846_R845C] | 2.79 | 0.508 | 0.887 | 0.558 | 0.566 | 0.703 | 0.351 | 3.08 | 2.75 | 0.466 | 0.792 | 0.746 | 0.429 | 0.694 | 0.36 | 0.608 |
| TKAEKYVNKAK [PLCG1_Y991] | 0.295 | 0.293 | 0.671 | 0.403 | 0.523 | 0.503 | 0.387 | 0.343 | 0.443 | 0.264 | 0.557 | 0.92 | 0.365 | 0.89 | 0.709 | 1.01 |
| EDSEYYKAFEE [CASQ2_Y179] | 0.425 | 0.489 | 1.34 | 0.487 | 0.742 | 1.37 | 0.51 | 0.508 | 0.547 | 0.526 | 1.11 | 0.793 | 0.372 | 0.921 | 0.614 | 0.748 |
